# Assay results taken from patent publication US8404644 (MEAT AND LIVESTOCK AUSTRALIA, dated 2013).
# Molecular target: the molecule itself
# Test: gel filtration on Sephacryl 300 HR at pH 5.3 (self-association, homodimer)
protein,measurement,value
"bovine βB2 crystallin (other, N-terminus acetylated (as extracted from bovine eye), Native intact protein purified from bovine eye lens; Wound Heal 1 = gel filtration at pH 5.3; Wound Heal 2 = 100 kDa retentate plus gel filtration, and also holds some βA3 crystallin; also called Crystallin βB2; Wound Heal 1) ASDHQTQAGKPQPLNPKIIIFEQENFQGHSHELNGPCPNLKETGVEKAGSVLVQAGPWVGYEQANCKGEQFVFEKGEYPRWDSWTSSRRTDSLSSLRPIKVDSQEHKITLYENPNFTGKKMEVIDDDVPSFHAHGYQEKVSSVRVQSGTWVGYQYPGYRGLQYLLEKGDYKDSGDFGAPQPQVQSVRRIRDMQWHQRGAFHPSS",binding result,binds
